From patent US20210388087A1 (Chugai, published 2021)

Target: T1, CD3 epsilon homodimer protein (UniProt P07766 23-126)
T1 construct: also called CD3 (CD3 epsilon)
Experiment: SPR, CD3 epsilon homodimer on chip, one-arm antibody as analyte;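 further: surface plasmon resonance at 25 °C with CD3 epsilon homodimer amine-coupled to a CM4 sensor chip, antibody injected as analyte, HBS-EP+ as running buffer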

T1 sequence (P07766 23-126): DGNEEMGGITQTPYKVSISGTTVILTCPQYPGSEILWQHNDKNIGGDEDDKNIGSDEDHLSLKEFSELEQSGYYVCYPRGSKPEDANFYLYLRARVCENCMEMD

| KD ratio (KD of CE115HA000/KD of altered form) | Binder |
| --- | --- |
| 0.92 | CE115HA000 Y100V (antibody, human IgG1, kappa, L234A L235A, N297A, name in Kabat numbering, one-arm antibody) heavy: QVQLVESGGGVVQPGRSLRLSCAASGFTFSNAWMHWVRQAPGKGLEWVAQIKAKSNNYATYYAESVKGRFTISRDDSKNSLYLQMNSLKTEDTAVYYCRYVHYGAVYGVDAWGQGTTVTVSSASTKGPSVFPLAPSSKSTSGGTAALGCLVKDYFPEPVTVSWNSGALTSGVHTFPAVLQSSGLYSLSSVVTVPSSSLGTQTYICNVNHKPSNTKVDKKVEPKSCDKTHTCPPCPAPEAAGGPSVFLFPPKPKDTLMISRTPEVTCVVVDVSHEDPEVKFNWYVDGVEVHNAKTKPREEQYASTYRVVSVLTVLHQDWLNGKEYKCKVSNKALPAPIEKTISKAKGQPREPQVYTLPPSRCELTKNQVSLSCAVKGFYPSDIAVEWESNGQPENNYKTTPPVLDSDGSFFLVSKLTVDKSRWQQGNVFSCSVMHEALHNHYTQKSLSLSPDYKDDDDK EPKSSDKTHTCPPCPAPELLGGPSVFLFPPKPKDTLMISRTPEVTCVVVDVSHEDPEVKFNWYVDGVEVHNAKTKPREEQYNSTYRVVSVLTVLHQDWLNGKEYKCKVSNKALPAPIEKTISKAKGQPREPQVCTLPPSRDELTKNQVSLWCLVKGFYPSDIAVEWESNGQPENNYKTTPPVLDSDGSFFLYSKLTVDKSRWQQGNVFSCSVMHEALHNRYTQKSLSLSP light: DIVMTQSPLSLPVTPGEPASISCRSSQSLVHSNRNTYLHWYQQKPGQAPRLLIYKVSNRFSGVPDRFSGSGSGTDFTLKISRVEAEDVGVYYCGQGTQVPYTFGQGTKLEIKRTVAAPSVFIFPPSDEQLKSGTASVVCLLNNFYPREAKVQWKVDNALQSGNSQESVTEQDSKDSTYSLSSTLTLSKADYEKHKVYACEVTHQGLSSPVTKSFNRGEC |
| 0.96 | CE115HA000 Y100W (antibody, human IgG1, kappa, L234A L235A, N297A, name in Kabat numbering, one-arm antibody) heavy: QVQLVESGGGVVQPGRSLRLSCAASGFTFSNAWMHWVRQAPGKGLEWVAQIKAKSNNYATYYAESVKGRFTISRDDSKNSLYLQMNSLKTEDTAVYYCRYVHYGAWYGVDAWGQGTTVTVSSASTKGPSVFPLAPSSKSTSGGTAALGCLVKDYFPEPVTVSWNSGALTSGVHTFPAVLQSSGLYSLSSVVTVPSSSLGTQTYICNVNHKPSNTKVDKKVEPKSCDKTHTCPPCPAPEAAGGPSVFLFPPKPKDTLMISRTPEVTCVVVDVSHEDPEVKFNWYVDGVEVHNAKTKPREEQYASTYRVVSVLTVLHQDWLNGKEYKCKVSNKALPAPIEKTISKAKGQPREPQVYTLPPSRCELTKNQVSLSCAVKGFYPSDIAVEWESNGQPENNYKTTPPVLDSDGSFFLVSKLTVDKSRWQQGNVFSCSVMHEALHNHYTQKSLSLSPDYKDDDDK EPKSSDKTHTCPPCPAPELLGGPSVFLFPPKPKDTLMISRTPEVTCVVVDVSHEDPEVKFNWYVDGVEVHNAKTKPREEQYNSTYRVVSVLTVLHQDWLNGKEYKCKVSNKALPAPIEKTISKAKGQPREPQVCTLPPSRDELTKNQVSLWCLVKGFYPSDIAVEWESNGQPENNYKTTPPVLDSDGSFFLYSKLTVDKSRWQQGNVFSCSVMHEALHNRYTQKSLSLSP light: DIVMTQSPLSLPVTPGEPASISCRSSQSLVHSNRNTYLHWYQQKPGQAPRLLIYKVSNRFSGVPDRFSGSGSGTDFTLKISRVEAEDVGVYYCGQGTQVPYTFGQGTKLEIKRTVAAPSVFIFPPSDEQLKSGTASVVCLLNNFYPREAKVQWKVDNALQSGNSQESVTEQDSKDSTYSLSSTLTLSKADYEKHKVYACEVTHQGLSSPVTKSFNRGEC |
